Measurements published in publication PMC6395711, “MdGSTF6, activated by MdMYB1, plays an essential role in anthocyanin accumulation in apple”.

Target: T1, MdMYB1 (Malus domestica? (apple), UniProt A0SQ37 1-243)
T1 sequence: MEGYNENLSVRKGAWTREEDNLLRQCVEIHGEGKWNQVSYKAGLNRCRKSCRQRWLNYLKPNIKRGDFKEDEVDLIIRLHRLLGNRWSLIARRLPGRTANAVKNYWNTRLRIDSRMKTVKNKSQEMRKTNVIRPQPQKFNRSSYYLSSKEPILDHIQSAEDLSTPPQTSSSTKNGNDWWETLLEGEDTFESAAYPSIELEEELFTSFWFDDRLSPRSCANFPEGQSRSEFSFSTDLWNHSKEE
Test: EMSA; LightShift Chemiluminescent EMSA Kit (Thermo); buffer, salt, pH and temperature not stated
Conditions: protein: recombinant; tags: pET-32a fusion, His (Ni-agarose purified); blunt

B1: MdGSTF6-probe (dsDNA)
DNA 1: ATATCTAGTTGTAATCAACTGTTATGGCATAAATTG
DNA 2: CAATTTATGCCATAACAGTTGATTACAACTAGATAT
B1: binds.
